Biological target: T1, EGFP-PABPN1-10A-ΔCT (Homo sapiens, UniProt Q86U42 1-254)
T1 sequence: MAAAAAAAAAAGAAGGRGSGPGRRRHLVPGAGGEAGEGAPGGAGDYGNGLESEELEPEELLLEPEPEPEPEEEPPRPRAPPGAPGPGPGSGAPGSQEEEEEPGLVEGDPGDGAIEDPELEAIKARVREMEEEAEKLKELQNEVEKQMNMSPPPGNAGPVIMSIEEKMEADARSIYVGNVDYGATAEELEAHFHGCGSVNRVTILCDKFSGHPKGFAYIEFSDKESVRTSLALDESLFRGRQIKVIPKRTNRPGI
Experiment: EMSA; 2 nM dA50, 0-5 uM protein; 50 mM Tris-HCl, 150 mM NaCl, 2 mM MgCl2, pH 7.5, 30 min at room temperature; 6% native gel
Details: protein: recombinant; tags: N-terminal EGFP, C-terminal His; label: 5'-Cy5; single-stranded

Binder: AAAAAAAAAAAAAAAAAAAAAAAAAAAAAAAAAAAAAAAAAAAAAAAAAA (ssDNA) [Cy5-dA50]
- binding result: binds
